Source: patent EP1336618A1
“And” between values parts separate entries of the source, which are not always exact repeats. Identical values can stand only once.

Molecular target: human C3b (human) (UniProt P01024)
Assay: cell-based or functional assay

UniProt P01024, sequence (P01024 749-1663 limits assumed, chain 1 of 2): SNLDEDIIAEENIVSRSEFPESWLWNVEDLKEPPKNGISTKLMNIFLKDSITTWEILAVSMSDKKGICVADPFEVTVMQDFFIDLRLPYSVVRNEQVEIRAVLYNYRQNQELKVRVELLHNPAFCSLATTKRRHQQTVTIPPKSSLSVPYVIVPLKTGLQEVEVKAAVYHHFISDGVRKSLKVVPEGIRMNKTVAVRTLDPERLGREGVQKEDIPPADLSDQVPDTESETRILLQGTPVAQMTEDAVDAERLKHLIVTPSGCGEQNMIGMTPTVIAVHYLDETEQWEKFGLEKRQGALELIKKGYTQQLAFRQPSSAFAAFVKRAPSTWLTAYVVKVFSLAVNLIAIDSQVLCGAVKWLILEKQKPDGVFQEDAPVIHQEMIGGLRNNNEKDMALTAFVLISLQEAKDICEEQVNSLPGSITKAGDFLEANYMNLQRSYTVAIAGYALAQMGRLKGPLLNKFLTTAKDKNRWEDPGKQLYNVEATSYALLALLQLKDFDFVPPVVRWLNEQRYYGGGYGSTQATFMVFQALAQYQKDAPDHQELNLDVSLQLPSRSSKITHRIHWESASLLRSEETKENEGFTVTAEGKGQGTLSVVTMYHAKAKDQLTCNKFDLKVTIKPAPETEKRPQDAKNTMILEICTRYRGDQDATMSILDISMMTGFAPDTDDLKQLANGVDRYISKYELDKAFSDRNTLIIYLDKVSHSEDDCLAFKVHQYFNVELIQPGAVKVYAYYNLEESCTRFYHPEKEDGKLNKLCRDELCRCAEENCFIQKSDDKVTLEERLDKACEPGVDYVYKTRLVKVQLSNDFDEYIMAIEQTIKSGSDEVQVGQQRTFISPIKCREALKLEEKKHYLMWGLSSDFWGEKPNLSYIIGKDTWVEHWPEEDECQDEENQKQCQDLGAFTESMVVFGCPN
UniProt P01024, sequence (P01024 23-667 limits assumed, chain 2 of 2): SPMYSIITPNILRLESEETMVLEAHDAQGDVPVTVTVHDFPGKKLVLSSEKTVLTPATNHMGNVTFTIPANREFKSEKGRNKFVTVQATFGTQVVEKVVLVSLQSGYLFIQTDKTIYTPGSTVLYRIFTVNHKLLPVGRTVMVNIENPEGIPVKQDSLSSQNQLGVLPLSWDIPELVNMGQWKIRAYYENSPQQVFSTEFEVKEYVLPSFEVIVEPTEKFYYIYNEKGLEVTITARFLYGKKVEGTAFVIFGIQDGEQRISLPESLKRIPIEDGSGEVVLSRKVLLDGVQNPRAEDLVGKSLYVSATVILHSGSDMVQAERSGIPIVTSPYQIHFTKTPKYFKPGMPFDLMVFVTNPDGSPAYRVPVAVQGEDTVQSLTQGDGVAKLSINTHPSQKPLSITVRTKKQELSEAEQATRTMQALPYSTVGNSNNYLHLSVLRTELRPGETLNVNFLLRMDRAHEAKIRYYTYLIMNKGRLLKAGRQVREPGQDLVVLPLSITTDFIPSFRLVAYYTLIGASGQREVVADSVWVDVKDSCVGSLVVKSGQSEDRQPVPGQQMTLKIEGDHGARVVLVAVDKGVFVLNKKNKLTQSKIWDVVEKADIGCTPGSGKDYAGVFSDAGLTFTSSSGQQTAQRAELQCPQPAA

difference in half-maximum activity in the cleavage of human C3b against human FHL-1 (dilution step)	half-maximum cleavage activity of hC3b (cofactor dilution, start 0.7 µg in 5 µl) (fold dilution (1:x))	Substance
< 1	8 and 16	recombinant fragment pFH SCR1-4 (porcine complement regulator factor H, short consensus repeats 1-4)
–	16 and 8	human FHL-1 (factor H like protein 1), recombinant (from UniProt P08603 19-449)
